{"source": "IntAct's records for PubMed 11134025", "parents": {"B1": {"name": "Protein kinase C-like 3 (Caenorhabditis elegans), Q19266 (parent)", "chain": "MSSPTSLEEDGDIKLKTRFQGQVVVLYARPPLILDDFFALLKDACKQHKKQDITVKWIDEDGDPISIDSQMELDEAVRCLNSSQEAELNIHVFVGKPELPGLPCQGEDKTVYRRGARRWKKIYLYNGHRFQAKRLNRRIQCFICHDYIWGIGRQGFRCVDCRLCVHKKCHRHVRTHCGQALQGPNIIPMAPASGSLKGARSNTSSSTTRSGGGIDNGAFHEHEIESPGSTSHDASRAMNGNGSSKWAVSLNDFRLLTVIGRGSYAKVVQAEHVSTRQIYAIKIIKKEMFNEDEDIDWVQTEKSVFEAASNYPFLVGLHSCFQTESRLFFVIEFVPGGDLMFHMQQQRKLPEEHARFYSGEIILALHFLHSRGIIYRDLKLDNVLIDAEGHIKLTDYGMCKENIKDGDLTSTFCGTPNYIAPEILRGDEYGFSVDWWALGVLMFEMMAGRSPFDIVGMQNSEENTEDYLFQIILERQIRIPRSLSVRASGILKGFLNKDPTERLGCKLDINEGLRDMKEHQFFRGFIDWEALEQKAVAPPYHPAVESDRDLTHFDHQFTDELPQLSPDNPDVIARIDQSEFDGFEYVNPLQMSREDSV", "partner": "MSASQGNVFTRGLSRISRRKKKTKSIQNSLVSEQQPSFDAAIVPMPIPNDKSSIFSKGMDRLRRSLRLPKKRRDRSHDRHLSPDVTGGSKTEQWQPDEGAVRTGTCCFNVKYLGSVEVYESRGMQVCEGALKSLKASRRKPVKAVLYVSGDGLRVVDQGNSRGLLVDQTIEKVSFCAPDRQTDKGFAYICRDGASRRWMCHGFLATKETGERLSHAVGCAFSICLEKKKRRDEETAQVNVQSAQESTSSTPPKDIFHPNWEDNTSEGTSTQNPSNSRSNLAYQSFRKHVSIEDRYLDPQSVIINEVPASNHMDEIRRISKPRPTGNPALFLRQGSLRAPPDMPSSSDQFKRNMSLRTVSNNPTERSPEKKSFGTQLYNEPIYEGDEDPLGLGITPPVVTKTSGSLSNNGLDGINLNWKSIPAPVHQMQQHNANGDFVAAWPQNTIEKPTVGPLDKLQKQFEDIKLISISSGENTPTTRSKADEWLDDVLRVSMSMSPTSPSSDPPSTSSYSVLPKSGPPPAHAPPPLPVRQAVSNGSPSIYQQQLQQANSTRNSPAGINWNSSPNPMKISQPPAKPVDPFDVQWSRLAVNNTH"}}, "data": [{"variants_of": "B1", "details": "with num-1, Q9XTY6-1", "values": [{"variant": "MSSPTSLEEDGDIKLKTRFQGQVVVLYARPPLILDDFFALLKDACKQHKKQDITVKWIDEDGDPISIDSQMELDEAVRCLNSSQEAELNIHVFVGKPELPGLPCQGEDKTVYRRGARRWKKIYLYNGHRFQAKRLNRRIQCFICHDYIWGIGRQGFRCVDCRLCVHKKCHRHVRTHCGQALQGPNIIPMAPASGSLKGARSNTSSSTTRSGGGADNGAFHEHEIESPGSTSHDASRAMNGNGSSKWAVSLNDFRLLTVIGRGSYAKVVQAEHVSTRQIYAIKIIKKEMFNEDEDIDWVQTEKSVFEAASNYPFLVGLHSCFQTESRLFFVIEFVPGGDLMFHMQQQRKLPEEHARFYSGEIILALHFLHSRGIIYRDLKLDNVLIDAEGHIKLTDYGMCKENIKDGDLTSTFCGTPNYIAPEILRGDEYGFSVDWWALGVLMFEMMAGRSPFDIVGMQNSEENTEDYLFQIILERQIRIPRSLSVRASGILKGFLNKDPTERLGCKLDINEGLRDMKEHQFFRGFIDWEALEQKAVAPPYHPAVESDRDLTHFDHQFTDELPQLSPDNPDVIARIDQSEFDGFEYVNPLQMSREDSV", "note": "[I214A]", "effect of a mutation on the interaction": "decreasing interaction"}, {"variant": "MSSPTSLEEDGDIKLKTRFQGQVVVLYARPPLILDDFFALLKDACKQHKKQDITVKWIDEDGDPISIDSQMELDEAVRCLNSSQEAELNIHVFVGKPELPGLPCQGEDKTVYRRGARRWKKIYLYNGHRFQAKRLNRRIQCFICHDYIWGIGRQGFRCVDCRLCVHKKCHRHVRTHCGQALQGPNIIPMAPASGSLKGARSNTSSSTTRSGGGIDAGAFHEHEIESPGSTSHDASRAMNGNGSSKWAVSLNDFRLLTVIGRGSYAKVVQAEHVSTRQIYAIKIIKKEMFNEDEDIDWVQTEKSVFEAASNYPFLVGLHSCFQTESRLFFVIEFVPGGDLMFHMQQQRKLPEEHARFYSGEIILALHFLHSRGIIYRDLKLDNVLIDAEGHIKLTDYGMCKENIKDGDLTSTFCGTPNYIAPEILRGDEYGFSVDWWALGVLMFEMMAGRSPFDIVGMQNSEENTEDYLFQIILERQIRIPRSLSVRASGILKGFLNKDPTERLGCKLDINEGLRDMKEHQFFRGFIDWEALEQKAVAPPYHPAVESDRDLTHFDHQFTDELPQLSPDNPDVIARIDQSEFDGFEYVNPLQMSREDSV", "note": "[N216A]", "effect of a mutation on the interaction": "decreasing interaction"}, {"variant": "MSSPTSLEEDGDIKLKTRFQGQVVVLYARPPLILDDFFALLKDACKQHKKQDITVKWIDEDGDPISIDSQMELDEAVRCLNSSQEAELNIHVFVGKPELPGLPCQGEDKTVYRRGARRWKKIYLYNGHRFQAKRLNRRIQCFICHDYIWGIGRQGFRCVDCRLCVHKKCHRHVRTHCGQALQGPNIIPMAPASGSLKGARSNTSSSTTRSGGGIDNGAAHEHEIESPGSTSHDASRAMNGNGSSKWAVSLNDFRLLTVIGRGSYAKVVQAEHVSTRQIYAIKIIKKEMFNEDEDIDWVQTEKSVFEAASNYPFLVGLHSCFQTESRLFFVIEFVPGGDLMFHMQQQRKLPEEHARFYSGEIILALHFLHSRGIIYRDLKLDNVLIDAEGHIKLTDYGMCKENIKDGDLTSTFCGTPNYIAPEILRGDEYGFSVDWWALGVLMFEMMAGRSPFDIVGMQNSEENTEDYLFQIILERQIRIPRSLSVRASGILKGFLNKDPTERLGCKLDINEGLRDMKEHQFFRGFIDWEALEQKAVAPPYHPAVESDRDLTHFDHQFTDELPQLSPDNPDVIARIDQSEFDGFEYVNPLQMSREDSV", "note": "[F219A]", "effect of a mutation on the interaction": "decreasing interaction"}]}]}
